Test results published in paper PMC2938849.

Target: Hsp104ΔM (yeast) (UniProt P31539)
Experiment: SEC

Hsp104ΔM (from UniProt P31539 1-908) (natural protein)
stoichiometry N: 6
